Laboratory results reported in paper PMC2376138 (2002).

How the values were obtained:
SC142-reactive antigen [1] = target: T1, SC142-reactive antigen (human (endogenous in SNU16), highly glycosylated (O-glycans)); assay: SPR; apparent; immobilised mAb, 1:1 Langmuir global fit
SC142-reactive antigen [2] = target: T1, SC142-reactive antigen; assay: SPR; apparent; immobilised scFv, 1:1 Langmuir global fit

| Binder | koff (SC142-reactive antigen [1]) [s⁻¹] | koff (SC142-reactive antigen [2]) [s⁻¹] |
| --- | --- | --- |
| SC142 monoclonal antibody (antibody, V domains shown) VH: QVKLQQSGTEVVKPGASVKLSCKASGYIFTSYDIDWVRQTPEQGLEWIGWIFPGEGSTEYNEKFKGRATLSVDKSSSTAYMELTRLTSEDSAVYFCARGDYYRRYFDLWGQGTTVTVSS VL: DIELTQSPTIMSASPGERVTMTCSASSSIRYIYWYQQKPGSSPRLLIYDTSNVAPGVPFRFSGSGSGTSYSLTINRMEAEDAATYYCLEWSGYPYTFGGGTKLELK | 0.000825 | – |
| recombinant SC142 scFv (scFv, V domains shown) VH: QVKLQQSGTEVVKPGASVKLSCKASGYIFTSYDIDWVRQTPEQGLEWIGWIFPGEGSTEYNEKFKGRATLSVDKSSSTAYMELTRLTSEDSAVYFCARGDYYRRYFDLWGQGTTVTVSS VL: DIELTQSPTIMSASPGERVTMTCSASSSIRYIYWYQQKPGSSPRLLIYDTSNVAPGVPFRFSGSGSGTSYSLTINRMEAEDAATYYCLEWSGYPYTFGGGTKLELK | – | 0.000776 |
